{"source": "the DeepSol protein solubility set"}
{"experiment": "soluble on expression in E. coli; label from the status in PepcDB or PDB records"}
{"sequence": "MRLIVVSGQSGAGKSVALRVLEDLGYYCVDNLPVSLLTAFIQSVQGSQQNVAVSIDIRNLPKEPSLVQDVLDQLKQNNDVSMLFLDASKETLLKRYSETRRIHPLSLSQSKPSLAQAIELEKQLLGPLKEQADLLLDSSNQSLHELSETVRMRIEGRERKDLVMVFQSFGFKYGLPTDADYVFDVRFLPNPHWEPDLRPLTGLDAPIKSFLEGHSEVMELKQQIQKFFEYWLPMLEKNNRSYLTIAIGCTGGKHRSVYLTQQLGEYFAQLGHQVQLRHTSLEKQQS", "soluble on expression in E. coli": "not soluble"}
{"sequence": "NDGTTVTPLCTSPVVQCGEGTLFGGDEPARTWFTAAQSSGLAASGNLPSYDPKFNRGVSGSFGTSYVGREGESVRKELSAKGYKVTMTSAPGDGIPKGSVVNVIAPVPLKPGGTIELFISDGTRPRTTPPSTTRRPNPTEEVVPGTGVSQNDLDDLAHQLQQLLPGF", "soluble on expression in E. coli": "not soluble"}
{"sequence": "MNFNQFENQNFFNGNPSDTFKDLGKQVFNYFSTPSFVTNIYETDELYYLEAELAGVNKEDISIDFNNNTLTIQATRSAKYKSEQLILDERNFESLMRQFDFEAVDKQHITASFENGLLTITLPKILEHHHHHH", "soluble on expression in E. coli": "soluble"}
{"sequence": "GERRIPESRILRREVVEATSAVAAALQIPARAPVIEMTRVRLIDGAPMLAEEIWLPYDRFAAFSRLELDSIGDLLYPVYEAHCNQIVASATETLTVEAIGPAHARLLRIEPGTPAVVIERLAYGYDRRPLEWRRSRGPASEFIYQAEIR", "soluble on expression in E. coli": "not soluble"}
{"sequence": "MSLYQRCFDNASETLFVAGKTPRLSRFAFSDDPKWESGHHVHDNETELIYVKKGVARFTIDSSLYVAHADDIVVIERGRLHAVASDVNDPATTCTCALYGFQFQGAEENQLLQPHSCPVIAAGQGKEVIKTLFNELSVILPQSKNSQTSSLWDAFAYTLAILYYENFKNAYRSEQGYIKKDVLIKDILFYLNNNYREKITLEQLSKKFRASVSYICHEFTKEYRISPINYVIQRRMTEAKWSLTNTELSQAEISWRVGYENVDHFAKLFLRHVGCSPSDYRRQFKNCFAEQEILSEFPQPVSLVGEGGSHHHHHH", "soluble on expression in E. coli": "soluble"}
{"sequence": "MQIWHMEPFPCGDRRLPHHVFPPKKITTTQLGQLAGVQYYKVDLDDTASMKKRLSAVKTEKNVTFTDMFTVSETMLEFDDKMEQFYEPQVQKEDVISLVVEGTCYYDVEPEDDSWIRVQVEKGDLIVIPKGLSHRFTTTPQNFVKIQRFFSRKVEGNQG", "soluble on expression in E. coli": "not soluble"}
{"sequence": "MSIWQRVSFTHRFSQLPSAFYTLVEPQPLDNTRWVAWNGEFAQQFGLPAAQNDELLAVFSGQSEFEPFRPLAMKYAGHQFGVYNPDLGDGRGLLLAEIEHQNGTWFDIHLKGAGLTPYSRMGDGRAVLRSTIREYLCSEAMAGLGIPTTRALGMVVSDTPVYREKTEFGAMLIRMAETHVRFGHFEHLFYTNQLAEQKLLADKVIEWHFADCASAEKPYAAMFGEIVQKTADMIAYWQAYGFAHGVMNTDNMSILGQTFDYGPFGFLDDYEPGYICNHSDYQGRYAFEQQPRIALWNLSALAHALSPLVEREDLEQALSQFEGRLSQQFSRLMRSKLGLKTKIAEDGRLFESMFELLNQNHTDYTRFFRALSNLDKQPAQEVIDLFIDREAAQAWLDLYLARCELEVDEIGEPISAEQRSEQMRQTNPKYILRNYLAQLAIDKAEEGDFSEVHRLAEILRHPYDSQPEFEAYAKLPPEWGKKMEISCSSLEHHHHHH", "soluble on expression in E. coli": "not soluble"}
{"sequence": "MNRARDWMRQAERDLEHAQKSLELGHWEWACFAAHQAAEKALKAVYFALGAEAFGHALTHLLAGLHERLNLTPELRRCALVLDRLYIPTRYPDSWEAGAPLDYYGEEEARDALLCAGEILRFGQSVLAGPGETSSGP", "soluble on expression in E. coli": "soluble"}
{"sequence": "MGHHHHHHSHMCSSGGPVDRAPDSSKDGKNHHKTMGHYNHNDSLRKTQINSLKNSVACPGAQKAITSSEAVDRFMPRTTQLQERKRRREDDRKLGTFLQTNPTGNEIMIGPLLPDISKVDMHDDSLNTTANLIRHKLKEVISSVPKPPEDKPEDVHTSRPLKQRRRI", "soluble on expression in E. coli": "soluble"}
{"sequence": "SGVTGAHGFPCCGKGSVEVAEMRDDLSQHQIQEEQELEADMLEQKPQLQVDLDLDPDPDPDPELEIGQVPALLESELYPALKLEAELDTEANSNEESDFEEPMQLVCKIESVHSNMGLPTPQTFRPWSLNSNCRSFTEENHMSACHHSISAQTSKHLFWANKLIQASEHSLQRAINMQLNNGSAGQPIRSPLREAIPTNALCSEEQLQIPDAHSAPPTTSSQAPSPLLSSDLPPPIDLTELITFASSLAMASSSRMDLPSLEHMMKAPPQEALEPSTEPLLTTVEEREPENHAETLPEKPREARAPLKSWSQEDKNFAQSYFDFSKPGIKRATIKGQIQLLQPPATSPLLQGSKEDSVPPGKEKENPLLVKIHFKLSAPTIPEK", "soluble on expression in E. coli": "soluble"}
{"sequence": "MLVSEMHGEVEAVKVGTEVQGRVLHWVYLYYYRNLLFDAGCPNTAQEVFEHFKGREIKAVLITHYHEDHIGAVNLFKEITDVYVPEESLEILRNPPDIPKYRKIGWGQPEKIEGVKVAKEVMKFDDVEVRMIKTPGHSFDHVSYLVDDKLFCGDLVINTAQMVCMREENLLKTIESIEKVLKYDFNYAYTGVGVASRDEVVEYLNYLKGLKEKAEMLYAEGKTIDEIVAACFPNPSQKAILMEFVSEKEWARENMVKSLLGLPRE", "soluble on expression in E. coli": "not soluble"}
{"sequence": "ARPKGIRIGYLPQVMRLQDGHTVYEEVEQAFNDIRQIEEEIRRLSDEMAGRTDYESDDYIRLIEHYTNMSETLSLMQQGNYHAAIEQTLIGLGFGREDFHRPTADFSGGWRMRIELAKLLLQRPEVLLLDEPTNHLDIESIGWLEQFIATNAGAVILVSHDRAFIDNTTTRTIEIELGHIYDYKTNYSHYVELREERLRQQMRAYENQQKMIRDTEDFIERFRYKATKSVQVQSRIKQLEKVERVEIDERDRSAFHFRFIPAQPSGSYP", "soluble on expression in E. coli": "not soluble"}
{"sequence": "GSKAPPTFKVSLMDQSVREGQDVIMSIRVQGEPKPVVSWLRNRQPVRPDQRRFAEEAEGGLCRLRILAAERGDAGFYTCKAVNEYGARQCEARLEVRGE", "soluble on expression in E. coli": "soluble"}
{"sequence": "MTAAADLILYNGDVHVLTDTATPADPAHSAVAIRDGRIVGLSNDYDAAFRADTGTREVDLGGRVVVPGFVDAHTHLAVLGKHGVHADLRGADSPAAATARLAERARETDAGWVLGFGYDDSQWSAALSTADLDAVSEARPVAAIREDMHTATVNGVALAEHGDEMPAADVGEDGRIVEDAVEAVYDATDPDLAGTRPLIEAAQREANERGVTAVHEMVRDSHAPRVYRELDAAGELSVRVRLNYWADHLDAVLETGLVTNHGGGMVTVGGIKTYTDGSLGGRTAKLSEPYADAPGETGQWVVDPSALAALVERADDAGLQVVAHAIGDAAVDAVLDAYEDAGERRHRIEHAELASDDAIERMADLGVVASVQPNFLKWAGSGGLYADRLGTARREASNRFADMLDAGVDVAFGSDCMPLAPLVGVHHAVTAPADAQRLSVTAALRAYTSGGARAGCREDEQGVIREGALADLTVLDASPWEHADAIADEVGVSMTVVDGAVVYDGRLEHHHHHH", "soluble on expression in E. coli": "not soluble"}
{"sequence": "LPAMEIECRITGTLNGVEFELVGGGEGTPEQGRMTNKMKSTKGALTFSPYLLSHVMGYGFYHFGTYPSGYENPFLHAINNGGYTNTRIEKYEDGGVLHVSFSYRYEAGRVIGDFKVMGTGFPEDSVIFTDKIIRSNATVEHLHPMGDNDLDGSFTRTFSLRDGGYYSSVVDSHMHFKSAIHPSILQNGGPMFAFRRVEEDHSNTELGIVEYQHAFKTPD", "soluble on expression in E. coli": "soluble"}
{"sequence": "MGSDKIHHHHHHMSDVNASLVDGKKILVTGGAGFIGCAISERLAARASRYVVMDNLHPQIHASAVRPGALHEKAELVVADVTDAGAWDALLSDFQPEIIIHLAAETGTGQSLTEASRHALVNVVGTTRLTDALVKHGIVVEHILLTSSRAVYGEGAWQKDDGTIVYPGQRGRAQLEAAQWDFPGMTMLPSRADRTEPRPTSVYGATKLAQEHVLRAWSLATKTPLSILRLQNVYGPGQSLTNSYTGIVALFSRLAREKKVIPLYEDGNVTRDFVSIDDVADAIVATLVRTPEALSLFDIGSGQATSILDMARIIAAHYGAPEPQINGAFRDGDVRHAACDLSESLANLGWKPQWSLKRGIGELQTWIAQELDRKN", "soluble on expression in E. coli": "not soluble"}
{"sequence": "MLEQLPYLALKTPPKTTALLKAECADFIVKEHLGYEMSGDGEFVALYVRKTDCNTLFVGEKLAKFAGVSERNMGYAGLKDRRAVTEQWFCLQMPGMETPDFSQFELDGVEILTVTRHNRKIRTGSLEGNYFDILLRGAEESDELKARLDFVANFGFPNYFTEQRFGRDGHNLTQALRWAQGEIKVKDRKKRSFYLSAARSEIFNLVVAARIEKSTINQVLPNDIVQLAGSHSWFKADEKEDLTALQVRLENQDILLTAPLIGEDILAASEIENEIVNQHSAFDPLMKQERMKAARRPLLMKAKGFSWAFEPEGLRLKFYLPAGSYATALVRELVNYTEE", "soluble on expression in E. coli": "soluble"}
{"sequence": "MALVPYEESAAIGLQKFHKPLATFSFANHTIQIRQDWRQLGVAAVVWDAAVVLSMYLEMGAVELRGCSAVELGAGTGLVGIVAALPGAQVTITDRKVALEFLKSNVEANLPPHIQPKAVVKELTWGQNLESFSPGEFDLILGADVIYLEDTFTDLLQTLGHLCSNNSVILLACRIRYERDSNFLTMLERQFTVSKVHYDPEKDVHIYKAQKRNQREDL", "soluble on expression in E. coli": "not soluble"}
{"sequence": "MSLHRSEKMKEIKEAYQQCGQIVGEYAPACFKALSYLPLKQRQASWAVLSFCHTAASADEKVLPAFEAKADHVYQRTNNGKQHLWKAFDHAYRTFTLESEPFREFIAAQKEDAKPYDDLDELLMYAYRTGGAAGLMLLPILTRRKQDQLKQAAVSLGLAIQLVRFLSDLGTDQQKNRIPRQVMQQFGYTEADLQKGTVNKAFTMTWEYIAFEAEAYLEECQDALPLFPQYSQKTVKAALHLHRAVLEKIRAKQHDVFQYHFALTETEVKQILSDIEGHHHHHH", "soluble on expression in E. coli": "soluble"}
{"sequence": "MVHEEDFKEGYILGFIEAEGSFSVSIKFQRDVFGGVRLDPVFSITQKNREVLEAIKEHLGIGRIMEKAGQPNTYVYVVDNFNELVKLINFLNKYADFMIVKKRQFLMFREIANGLVNGEHLHINGLKRLVKLAYELTKESEKGYRKYDLNHVLSIIDKWDLGRNVSTSL", "soluble on expression in E. coli": "soluble"}
{"sequence": "MGSDKIHHHHHHMDSEFANAVELSYECAPLLESLKEYSEKDIACFDVPGHVKNRGVAILNKYLGESLMKMDINSSPTMDNVSAPNGIIKNAQDLLAQAYMADEAFFITNGTTQAIHAMILSVIKPGEKVLLPRNIHKSVINALILCGGIPIFIQPEFDEKLGISLNITLEKVRTEIEKDCNIKALFFLNPTYYGVCADLESIIELCHKNNVLVLVDEAHGAHFPFHLDLPPSAISLGADMVAVSIHKTGGALTQSSALLLNRDNVSFEKVLQSINMLQSTSASYLLMASIDGARVNLVENGEKQLSKALNLSRYAKSKLNKIDGIKVLSTEILKQKGVKFIDETKLCINVKELNLTGFEVYDLLYKNFSIQVELGDSYNILALVSIGTNKSDIDRLVKALSIIAKVYRKESTLNEFNMVQINPIIKLNPREAFYAPKESVEINSCIDRICGESIMAYPPGIPIIAPGELITEEIMEYIIFLKNSNAYLTDVQDKNLDRILVIK", "soluble on expression in E. coli": "not soluble"}
{"sequence": "MKIKSNLKLRRIGNRHMIVEVSDSCVNLTNVYSLNGTAARLWEMVCNGEGRTAGELAEGLCKTYDVEYGRALRDVERQIEEWEKMGLLSRRGTGD", "soluble on expression in E. coli": "not soluble"}
{"sequence": "MFVYYIYTIIKSQSKSTPHHYHPCWSNSAAGLKKWGGFMNIKNNRRRRASRDAIENIFIELLQTKSLNEITVSDICKKAGLNRSTFYANYMDIYQLADTIRETLEDNLNDLYRSEIAGGYNSNDYLPLFRHIKENQPFYNTYFKLGYDNQYKIFKYDTALARDHFGNRFIDYHCEFFKSGITAIIKHWLSNGCLETPEEINGILMSEYRGRKMEET", "soluble on expression in E. coli": "not soluble"}
{"sequence": "MLACSFKAVNGGFRHLLIRMIIDPPHHLFDTALARQIAIHILHYQFEVTRPRLVAMQEHERTAVARSLRTINRRLEEPVFAKAYRRWAGRDGTVSRDCFKFDCCA", "soluble on expression in E. coli": "not soluble"}
